Numbering of substitutions follows the chain as printed.
B1: 9-2H7-D7 chimera (antibody, V domains shown)
VH: EVQLQQSGPELVKPGASVTISCKTSGYTFTEYTMYWVKQSHGKSLEWIGGINPYIGDTSYNQNFKGKATLTVDKSSSTAYMELRSLTSEDSAVYYCARDGYPDYSAMDFWGQGTSVTVSS
VL: DIVMSQSPSSLAVSVGEKVTMNCKSSQNLLYSSNQKNYLAWYQQKPGQSPKLLIYWASTRESGVPDRFTGSGSGTDFTLTISSVKAEDLAVYSCQQYYTYPWTFGGGTKLEIK
B2: 9-7A4-C2 (mouse) (antibody, V domains shown)
VH: EVQLQQSGPELVKPGASVKISCKTSGYTFTEYTMYWVKQSHGKSLEWIGGINPNNGDSSYIQKFKGKATLTVDESSSTAYMELRSLTSEDSAVYYCARDGYPNSYAMDYWGQGTSVTVSS
VL: B1 VL with E17D, N22S, N28S, S33T, S82G, K85R, A86P, S93Y, T99S
B3: humanised 9-8F2-B11 (VH3VL3) (antibody, V domains shown)
VH: QVQLVQSGAEVKKPGASVKVSCKASGFNIKETYVHWVRQAPGQGLEWMGRIDPAIGDSEYAQKFQGRVTMTRDTSISTAYMELSRLRSDDTAVYYCARTWGPFFDFWGQGTLVTVSS
VL: DIVMTQTPLSLSVTPGQPASISCKSSQSLLHSHGNTFLHWYLQKPGQSPQVLIYKVSSRFSGVPDRFSGSGSGTDFTLKISRVEAEDVGVYYCSQSTHVPYTFGQGTKLEIK
notes: also called 9-8F2-B11 humanised
B4: 9-2H7-D7 (mouse) (antibody, V domains shown)
VH: B1 VH
VL: B1 VL
B5: 9-8F2-B11 (mouse) (antibody, V domains shown)
VH: EVQLQQSGAELVKPGASVKLSCTASGFNIKETYVHWVKQRPEQGLEWIGRIDPAIGDSEYDPKFQGKATVTADTSSNTAYLQLSRLTSEDTAVYYCARTWGPFFDFWGQGTTLTVSS
VL: DVVMTQTPLSLPVSLGDQASISCRSSQSLVHSHGNTFLHWYLQKPGQSPKVLIYKVSSRFSGVPDRFSGSGAGTDFTLKISRVEAEDLGVYFCSQSTHVPYTFGGGTKLEIK

What follows are binders tested against SARS-CoV-2 spike, African variant B.1.351 (on pseudovirus) (SARS-CoV-2) (assay: cell-based or functional assay).
In the case of B1, the “IC50 (ng/ml), pseudovirus neutralisation, African B1.1.351” value (shortened to “IC50 (ng/ml) … African B1.1.351”) is reported as 21 ng/mL. For B2, the “IC50 (ng/ml) … African B1.1.351” value was 20 ng/mL. In the case of B3, the “IC50 (ng/ml) … African B1.1.351” value is reported as 12000 ng/mL.

These binders were tested against SARS-CoV-2 spike, variant N501Y (B.1.1.7, British) (on virus or pseudovirus) (SARS-CoV-2, UniProt P0DTC2 14-1273) (assay: cell-based or functional assay).
With B4 the “IC50 (ng/ml), pseudovirus neutralisation, British B1.1.7” value (shortened to “IC50 (ng/ml) … British B1.1.7”) was 40 ng/mL. With B1 the “IC50 (ng/ml) … British B1.1.7” value was 11 ng/mL. In the case of B2, the “IC50 (ng/ml) … British B1.1.7” value is reported as 18 ng/mL. B3 was tested, and the “IC50 (ng/ml) … British B1.1.7” value was 11 ng/mL. For B5, the “IC50 (ng/ml) … British B1.1.7” value was 7.7 ng/mL.

— patent publication US20240382586A1 (TAKIS S R L, published 2024)
